These results are taken from publication doi:10.1101/2024.08.28.609967 (bioRxiv, 2024).

T1: GST-TEX264 (28–313aa) (human, UniProt Q9Y6I9 28-313)
T1 construct: TEX264, cytosol-exposed domain, residues 28-313, synthetic gene; also called GST-tagged TEX264; source: E. coli Rosetta pLysS, purified (glutathione beads, SEC); not shown: GST, N-terminal, kept
T1 sequence (looked up): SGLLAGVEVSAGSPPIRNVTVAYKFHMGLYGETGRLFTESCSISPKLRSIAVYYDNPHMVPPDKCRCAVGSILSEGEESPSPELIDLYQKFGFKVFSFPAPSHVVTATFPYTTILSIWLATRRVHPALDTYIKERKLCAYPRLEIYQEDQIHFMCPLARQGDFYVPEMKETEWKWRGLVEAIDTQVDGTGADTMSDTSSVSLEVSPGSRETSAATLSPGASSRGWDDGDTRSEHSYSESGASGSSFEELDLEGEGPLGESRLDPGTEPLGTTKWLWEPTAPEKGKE

T2: CCPG1-GST (1–212aa) (human, UniProt Q9ULG6 1-212)
T2 construct: CCPG1, cytosol-exposed domain, residues 1-212, synthetic gene; also called GST-tagged CCPG1; source: E. coli Rosetta pLysS, purified (glutathione beads, SEC); not shown: GST, C-terminal, kept
T2 sequence (looked up): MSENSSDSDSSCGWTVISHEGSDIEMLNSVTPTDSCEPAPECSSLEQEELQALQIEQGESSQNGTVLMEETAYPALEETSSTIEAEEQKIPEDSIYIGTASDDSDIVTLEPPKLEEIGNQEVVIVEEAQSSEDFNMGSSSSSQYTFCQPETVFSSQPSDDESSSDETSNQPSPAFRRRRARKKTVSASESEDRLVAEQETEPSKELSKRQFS

B1: GFP-tagged ATG13 (206–230) (peptide, UniProt O75143 206-230, looked up)
chain: PIMGIIIDHFVDRPYPSSSPMHPCN
notes: ATG13 residues 206-230; also called ATG13 IDR fragment (206–230aa); source: E. coli Rosetta pLysS, purified (glutathione beads, TEV cleavage, SEC on S75); not shown: GST, N-terminal, cleaved; EGFP, N-terminal, kept
B2: GFP-FIP200 C-terminal region (CTR) (residues 1429–1591) (domain or fragment, UniProt Q8TDY2-2 1429-1591, looked up)
chain: ADEGRVDSAMETSMMSVQENIHMLSEEKQRIMLLERTLQLKEEENKRLNQRLMSQSMSSVSSRHSEKIAIRDFQVGDLVLIILDERHDNYVLFTVSPTLYFLHSESLPALDLKPASGASRRPWVLGKVMEKEYCQAKKAQNRFKVPLGTKFYRVKAVSWNKKV
notes: FIP200 (RB1CC1), C-terminal region with the Claw domain and a portion of the coiled-coil, residues 1429-1591; also called GFP-tagged FIP200-CTR; GFP-FIP200(CTR); source: E. coli Rosetta pLysS, purified (His-Trap, TEV cleavage, SEC); not shown: His6, N-terminal, cleaved; GFP, N-terminal, kept
B3: FUNDC1(1–50aa)-GST (domain or fragment, human, UniProt Q8IVP5 1-50, looked up)
chain: MATRNPPPQDYESDDDSYEVLDLTEYARRHQWWNRVFGHSSGPMVEKYSV
notes: FUNDC1, cytosol-exposed domain, residues 1-50; also called FUNDC1-GST; source: E. coli Rosetta pLysS, purified (glutathione beads, SEC); not shown: GST, C-terminal, kept
B4: GFP-tagged ATG13 (191–230aa) (peptide, UniProt O75143 191-230, looked up)
chain: INLAFMSTRQFERTPPIMGIIIDHFVDRPYPSSSPMHPCN
notes: source: E. coli Rosetta pLysS, purified (glutathione beads, TEV cleavage, SEC on S75); not shown: GST, N-terminal, cleaved; EGFP, N-terminal, kept
B5: mCherry-tagged ATG13 IDR (191–517aa) (domain or fragment, UniProt O75143 191-517, looked up)
chain: INLAFMSTRQFERTPPIMGIIIDHFVDRPYPSSSPMHPCNYRTAGEDTGVIYPSVEDSQEVCTTSFSTSPPSQLSSSRLSYQPAALGVGSADLAYPVVFAAGLNATHPHQLMVPGKEGGVPLAPNQPVHGTQADQERLATCTPSDRTHCAATPSSSEDTETVSNSSEGRASPHDVLETIFVRKVGAFVNKPINQVTLTSLDIPFAMFAPKNLELEDTDPMVNPPDSPETESPLQGSLHSDGSSGGSSGNTHDDFVMIDFKPAFSKDDILPMDLGTFYREFQNPPQLSSLSIDIGAQSMAEDLDSLPEKLAVHEKNVREFDAFVETLQ
notes: also called mCh-IDR; source: E. coli Rosetta pLysS, purified (His-Trap, SEC); not shown: mCherry, N-terminal, kept
B6: GFP-tagged ATG13 IDR (191–517aa) (domain or fragment, UniProt O75143 191-517, looked up)
chain: B5 chain
notes: Addgene numbers of the GFP-ATG13 constructs are tied to the ranges by their order in the list; also called ATG13 IDR wild-type (WT); source: E. coli Rosetta pLysS, purified (glutathione beads, TEV cleavage, SEC); not shown: GST, N-terminal, cleaved; EGFP, N-terminal, kept
B7: GFP-tagged ATG13 IDR (Δ191–205aa) (domain or fragment, UniProt O75143 205-517, looked up)
chain: PPIMGIIIDHFVDRPYPSSSPMHPCNYRTAGEDTGVIYPSVEDSQEVCTTSFSTSPPSQLSSSRLSYQPAALGVGSADLAYPVVFAAGLNATHPHQLMVPGKEGGVPLAPNQPVHGTQADQERLATCTPSDRTHCAATPSSSEDTETVSNSSEGRASPHDVLETIFVRKVGAFVNKPINQVTLTSLDIPFAMFAPKNLELEDTDPMVNPPDSPETESPLQGSLHSDGSSGGSSGNTHDDFVMIDFKPAFSKDDILPMDLGTFYREFQNPPQLSSLSIDIGAQSMAEDLDSLPEKLAVHEKNVREFDAFVETLQ
notes: source: E. coli Rosetta pLysS, purified (glutathione beads, TEV cleavage, SEC); not shown: GST, N-terminal, cleaved; EGFP, N-terminal, kept

Common to all, as to details: both partners purified
One test addresses T3, mCherry-WIPI3 (UniProt Q5MNZ6 1-344).
T3 construct: also called mCherry-tagged WIPI3; source: E. coli Rosetta pLysS, purified (His-Trap, SEC); not shown: mCherry, N-terminal, kept
Briefly: microscopy-based bead assay; GFP-trap agarose beads coated with GFP-tagged bait (ULK1 complex, ATG13/101, FIP200, ULK1 K46I, ATG13 IDR and its fragments or variants; 5 uM), mCherry-tagged WIPI proteins as prey; 25 mM Tris-HCl pH 7.4, 150 mM NaCl, 1 mM DTT; confocal imaging.

The target in the next test is T4, BCL2L13(1–465aa)-GST (human, UniProt Q9BXK5 1-465).
T4 construct: BCL2L13, cytosol-exposed domain, residues 1-465; also called BCL2L13-GST; source: E. coli Rosetta pLysS, purified (glutathione beads, SEC); not shown: GST, C-terminal, kept
Kind of test: microscopy-based bead assay; glutathione beads coated with GST-tagged cargo receptors (5 uM), GFP-FIP200 CTR (1429-1591) as prey, 30 min; 25 mM Tris-HCl pH 7.4, 150 mM NaCl, 1 mM DTT; confocal imaging.

In another test the target is T1, GST-TEX264 (28–313aa). Described as above.
The next test has as its target T5, GST-FAM134C (250–466aa) (human, UniProt Q86VR2 250-466).
T5 construct: FAM134C, cytosol-exposed domain, residues 250-466, synthetic gene; also called GST-tagged FAM134C; source: E. coli Rosetta pLysS, purified (glutathione beads, SEC); not shown: GST, N-terminal, kept
The test is described as above.

The target of a further test is T2, CCPG1-GST (1–212aa). The description is as above.
The target of another test is T6, FKBP8-GST (1–391aa) (human, UniProt Q14318 1-391).
T6 construct: FKBP8, cytosol-exposed domain, residues 1-391, synthetic gene; also called GST-tagged FKBP8; source: E. coli Rosetta pLysS, purified (glutathione beads, SEC); not shown: GST, C-terminal, kept
Described as above.

Test [1] has as its target B2. Briefly: microscopy-based bead assay; as a2 (GFP-FIP200 CTR prey) with kinases TBK1, MBP-ULK1, CK2 or Src (Y530F) and 10 mM MgCl2, 100 uM ATP.
A further test deals with T7, GST-WIPI3 (UniProt Q5MNZ6 1-344).
T7 construct: WIPI3 (WDR45B); Addgene numbers are tied to WIPI1/2/3/4 by their order in the list; also called GST-tagged WIPI3; GST-TEV-WIPI3; source: FreeStyle HEK293F cells, transfected, purified (glutathione beads, SEC); not shown: GST, N-terminal, kept
Kind of test: microscopy-based bead assay; glutathione beads coated with GST-tagged WIPI2d or WIPI3 (5 uM), mCherry-tagged ATG13 constructs as prey; 25 mM Tris-HCl pH 7.4, 150 mM NaCl, 1 mM DTT; confocal imaging.

T3 sequence (Q5MNZ6 whole entry): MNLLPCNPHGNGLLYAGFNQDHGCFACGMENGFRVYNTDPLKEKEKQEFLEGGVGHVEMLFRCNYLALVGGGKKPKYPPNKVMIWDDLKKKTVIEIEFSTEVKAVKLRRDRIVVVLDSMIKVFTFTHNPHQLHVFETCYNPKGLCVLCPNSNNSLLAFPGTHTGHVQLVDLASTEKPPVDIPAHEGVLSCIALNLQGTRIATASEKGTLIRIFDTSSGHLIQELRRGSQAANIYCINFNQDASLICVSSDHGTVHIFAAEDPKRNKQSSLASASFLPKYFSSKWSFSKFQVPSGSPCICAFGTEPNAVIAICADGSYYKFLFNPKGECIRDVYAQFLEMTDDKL
T7 sequence (Q5MNZ6 whole entry): as above
T5 sequence (Q86VR2 250-466): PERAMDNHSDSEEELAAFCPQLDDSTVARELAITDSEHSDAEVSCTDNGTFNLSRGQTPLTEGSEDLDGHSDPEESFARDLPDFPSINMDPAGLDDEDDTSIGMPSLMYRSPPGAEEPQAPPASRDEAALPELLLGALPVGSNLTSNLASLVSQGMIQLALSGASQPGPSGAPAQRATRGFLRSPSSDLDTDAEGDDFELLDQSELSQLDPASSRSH
T4 sequence (Q9BXK5 1-465): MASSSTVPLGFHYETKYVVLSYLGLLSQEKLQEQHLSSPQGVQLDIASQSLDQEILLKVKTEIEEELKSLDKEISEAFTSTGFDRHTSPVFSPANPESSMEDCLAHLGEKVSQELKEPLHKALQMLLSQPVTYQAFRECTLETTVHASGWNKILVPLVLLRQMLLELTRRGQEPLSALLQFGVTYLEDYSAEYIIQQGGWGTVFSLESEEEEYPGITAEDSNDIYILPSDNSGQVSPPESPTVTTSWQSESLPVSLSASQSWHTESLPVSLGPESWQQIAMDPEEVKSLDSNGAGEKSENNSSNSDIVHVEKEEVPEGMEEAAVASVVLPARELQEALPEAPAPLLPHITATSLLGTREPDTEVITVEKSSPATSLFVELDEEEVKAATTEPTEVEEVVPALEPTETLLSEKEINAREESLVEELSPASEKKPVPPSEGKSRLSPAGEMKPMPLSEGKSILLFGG
T6 sequence (Q14318 1-391): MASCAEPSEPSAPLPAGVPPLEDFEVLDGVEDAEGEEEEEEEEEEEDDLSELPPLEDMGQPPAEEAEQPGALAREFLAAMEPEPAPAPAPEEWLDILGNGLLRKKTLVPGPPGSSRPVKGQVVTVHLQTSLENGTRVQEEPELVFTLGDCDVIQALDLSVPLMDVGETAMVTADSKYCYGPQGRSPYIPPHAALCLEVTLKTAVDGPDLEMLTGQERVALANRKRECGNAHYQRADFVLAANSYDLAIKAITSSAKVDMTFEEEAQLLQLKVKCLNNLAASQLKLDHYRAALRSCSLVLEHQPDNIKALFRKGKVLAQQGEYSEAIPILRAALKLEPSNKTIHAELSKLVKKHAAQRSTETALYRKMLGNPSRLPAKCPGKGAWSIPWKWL

B1: in the test with mCherry-WIPI3, the binding result is “binds”.

Consider B2, for which the binding result with BCL2L13(1–465aa)-GST, with GST-TEX264 (28–313aa), with GST-FAM134C (250–466aa), with CCPG1-GST (1–212aa) and with FKBP8-GST (1–391aa) was “binds” throughout.

On to B3, for which, in test [1], the binding result is reported as “binds”.

On to B4, for which the binding result with mCherry-WIPI3 is reported as “binds”.

With B5, in the test with GST-WIPI3, the binding result is given as “binds”.

On to B6, for which the binding result with mCherry-WIPI3 is “binds”.

As for B7, the binding result with mCherry-WIPI3 was “binds”.
